According to IntAct's records for PubMed 24290141:

B1: Autophagy-related protein 13 (Homo sapiens), O75143 (parent)
chain: METDLNSQDRKDLDKFIKFFALKTVQVIVQARLGEKICTRSSSSPTGSDWFNLAIKDIPEVTHEAKKALAGQLPAVGRSMCVEISLKTSEGDSMELEIWCLEMNEKCDKEIKVSYTVYNRLSLLLKSLLAITRVTPAYRLSRKQGHEYVILYRIYFGEVQLSGLGEGFQTVRVGTVGTPVGTITLSCAYRINLAFMSTRQFERTPPIMGIIIDHFVDRPYPSSSPMHPCNYRTAGEDTGVIYPSVEDSQEVCTTSFSTSPPSQLSSSRLSYQPAALGVGSADLAYPVVFAAGLNATHPHQLMVPGKEGGVPLAPNQPVHGTQADQERLATCTPSDRTHCAATPSSSEDTETVSNSSEGRASPHDVLETIFVRKVGAFVNKPINQVTLTSLDIPFAMFAPKNLELEDTDPMVNPPDSPETESPLQGSLHSDGSSGGSSGNTHDDFVMIDFKPAFSKDDILPMDLGTFYREFQNPPQLSSLSIDIGAQSMAEDLDSLPEKLAVHEKNVREFDAFVETLQ

Variants of: B1
Settings: with MAP1LC3A

Effect of a mutation on the interaction, decreasing interaction strength:
F444A
D443A
V445A
I447A
D442A
M446A
